Source: the supplement of paper PMC11246515
± gives the standard deviation of the averaged measurements.

Assay: total protein half-life in vivo (active degradation + dilution); higher = more stable protein
[1] = E. coli NCM3722 delta-clpP delta-lon delta-hslV, growth: N-lim chemostat, doubling time 6 h
[2] = E. coli NCM3722 delta-clpP, growth: N-lim chemostat, doubling time 6 h
[3] = E. coli NCM3722 delta-hslV, growth: N-lim chemostat, doubling time 6 h
[4] = E. coli NCM3722 delta-lon, growth: N-lim chemostat, doubling time 6 h
[5] = E. coli NCM3722 delta-smpB, growth: N-lim chemostat, doubling time 6 h
[6] = wild type E. coli NCM3722, growth: C-lim chemostat, doubling time 3 h
[7] = wild type E. coli NCM3722, growth: C-lim chemostat, doubling time 6 h
[8] = wild type E. coli NCM3722, growth: C-lim chemostat, doubling time 12 h
[9] = wild type E. coli NCM3722, growth: N-lim chemostat, doubling time 6 h
[10] = wild type E. coli NCM3722, growth: N-lim chemostat, doubling time 12 h
[11] = wild type E. coli NCM3722, growth: P-lim chemostat, doubling time 6 h
[12] = wild type E. coli NCM3722, growth: P-lim chemostat, doubling time 12 h

## MGEISITKLLVVAALVVLLFGTKKLRTLGGDLGAAIKGFKKAMNDDDAAAKKGADVDLQAEKLSHKE [P0A843]
[1]
  total protein half-life in vivo: 1.78 ± 1 h
[2]
  total protein half-life in vivo: 1.57 ± 0.29 h
[3]
  total protein half-life in vivo: 1.48 ± 0.19 h
[4]
  total protein half-life in vivo: 1.01 ± 0.26 h
[5]
  total protein half-life in vivo: 1.05 ± 0.24 h
[6]
  total protein half-life in vivo: 0.833 ± 0.13 h
[7]
  total protein half-life in vivo: 0.983 h
[8]
  total protein half-life in vivo: 1.3 ± 0.34 h
[9]
  total protein half-life in vivo: 1.79 h
[10]
  total protein half-life in vivo: 2.14 ± 0.98 h
[11]
  total protein half-life in vivo: 0.79 h
[12]
  total protein half-life in vivo: 1.59 ± 0.77 h

## MGFTTRVKSEASEKKPFNFALFWDKYGTFFILAIIVAIFGSLSPEYFLTTNNITQIFVQSSVTVLIGMGEFFAILVAGIDLSVGAILALSGMVTAKLMLAGVDPFLAAMIGGVLVGGALGAINGCLVNWTGLHPFIITLGTNAIFRGITLVISDANSVYGFSFDFVNFFAASVIGIPVPVIFSLIVALILWFLTTRMRLGRNIYALGGNKNSAFYSGIDVKFHILVVFIISGVCAGLAGVVSTARLGAAEPLAGMGFETYAIASAIIGGTSFFGGKGRIFSVVIGGLIIGTINNGLNILQVQTYYQLVVMGGLIIAAVALDRLISK
[3]
  total protein half-life in vivo: 5.22 h
[7]
  total protein half-life in vivo: 5.91 h

## MGKAVIAIHGGAGAISRAQMSLQQELRYIEALSAIVETGQKMLEAGESALDVVTEAVRLLEECPLFNAGIGAVFTRDETHELDACVMDGNTLKAGAVAGVSHLRNPVLAARLVMEQSPHVMMIGEGAENFAFARGMERVSPEIFSTSLRYEQLLAARKEGATVLDHSGAPLDEKQKMGTVGAVALDLDGNLAAATSTGGMTNKLPGRVGDSPLVGAGCYANNASVAVSCTGTGEVFIRALAAYDIAALMDYGGLSLAEACERVVMEKLPALGGSGGLIAIDHEGNVALPFNTEGMYRAWGYAGDTPTTGIYREKGDTVATQ
[1]
  total protein half-life in vivo: 4.9 ± 0.24 h
[2]
  total protein half-life in vivo: 3.77 ± 0.08 h
[3]
  total protein half-life in vivo: 3.58 ± 0.043 h
[4]
  total protein half-life in vivo: 3.62 ± 0.16 h
[5]
  total protein half-life in vivo: 3.16 ± 0.25 h
[6]
  total protein half-life in vivo: 2.78 ± 0.19 h
[7]
  total protein half-life in vivo: 4.99 ± 0.29 h
[8]
  total protein half-life in vivo: 11.2 ± 4.6 h
[9]
  total protein half-life in vivo: 3.47 ± 0.42 h
[10]
  total protein half-life in vivo: 4.78 ± 0.12 h
[11]
  total protein half-life in vivo: 4.75 ± 0.052 h
[12]
  total protein half-life in vivo: 8.26 ± 0.14 h

## MGKLGENVPLLIDKAVDFMASSQAFREYLKKLPPRNAIPSGIPDESVPLYLQRLEYYRRLYRPKQVEGQ [Q2M7R5]
[2]
  total protein half-life in vivo: 4.46 ± 1.4 h
[3]
  total protein half-life in vivo: 3.56 h
[4]
  total protein half-life in vivo: 3.4 h
[5]
  total protein half-life in vivo: 3.22 ± 0.16 h
[6]
  total protein half-life in vivo: 1.99 ± 0.42 h
[7]
  total protein half-life in vivo: 4.09 ± 0.43 h
[8]
  total protein half-life in vivo: 4.69 h
[9]
  total protein half-life in vivo: 2.94 ± 0.43 h
[10]
  total protein half-life in vivo: 4.57 ± 1.1 h
[11]
  total protein half-life in vivo: 3.73 ± 0.57 h
[12]
  total protein half-life in vivo: 8.27 ± 0.33 h

## MGKLTGKTALITGALQGIGEGIARTFARHGANLILLDISPEIEKLADELCGRGHRCTAVVADVRDPASVAAAIKRAKEKEGRIDILVNNAGVCRLGSFLDMSDDDRDFHIDINIKGVWNVTKAVLPEMIARKDGRIVMMSSVTGDMVADPGETAYALTKAAIVGLTKSLAVEYAQSGIRVNAICPGYVRTPMAESIARQSNPEDPESVLTEMAKAIPMRRLADPLEVGELAAFLASDESSYLTGTQNVIDGGSTLPETVSVGI
[1]
  total protein half-life in vivo: 5.394 ± 0.017 h
[2]
  total protein half-life in vivo: 4.09 ± 0.14 h
[5]
  total protein half-life in vivo: 4.12 ± 0.29 h
[6]
  total protein half-life in vivo: 2.91 ± 0.32 h
[7]
  total protein half-life in vivo: 6.12 ± 0.41 h
[8]
  total protein half-life in vivo: 10.2 ± 1.1 h
[9]
  total protein half-life in vivo: 5.35 h
[10]
  total protein half-life in vivo: 6.28 h
[11]
  total protein half-life in vivo: 6.25 ± 0.41 h
[12]
  total protein half-life in vivo: 14.8 ± 0.61 h

## MGKTISIKVLFGIYLLLMAGKVFAFSCNVDGGSSIGAGTTSVYVNLDPVIQPGQNLVVDLSQHISCWNDYGGWYDTDHINLVQGSAFAGSLQSYKGSLYWNNVTYPFPLTTNTNVLDIGDKTPMPLPLKLYITPVGAAGGVVIKAGEVIARIHMYKIATLGSGNPRNFTWNIISNNNVVMPTGGCTVDSRNVTVDLPDFPGSAEIPLGVYCSSEQKLSFYLSGATTDSSRQVFANTAPDATKASGVGVTLMRNGKILATGENVSLGTVNKSKVPLGLSATYGQTGNKVSAGTVQSVIGVTFIYE
[2]
  total protein half-life in vivo: 5.18 ± 0.35 h
[5]
  total protein half-life in vivo: 5.306 ± 0.0055 h
[6]
  total protein half-life in vivo: 2.85 ± 0.12 h
[7]
  total protein half-life in vivo: 3.09 h
[8]
  total protein half-life in vivo: 8.385 ± 0.065 h
[9]
  total protein half-life in vivo: 6.56 h
[10]
  total protein half-life in vivo: 12.7 ± 0.21 h

## MGKTNDWLDFDQLAEEKVRDALKPPSMYKVILVNDDYTPMEFVIDVLQKFFSYDVERATQLMLAVHYQGKAICGVFTAEVAETKVAMVNKYARENEHPLLCTLEKA [P0A8Q6]
[1]
  total protein half-life in vivo: 5.9 ± 0.35 h
[3]
  total protein half-life in vivo: 0.855 ± 0.013 h
[4]
  total protein half-life in vivo: 1.05 h
[6]
  total protein half-life in vivo: 0.522 h
[7]
  total protein half-life in vivo: 0.628 h
[8]
  total protein half-life in vivo: 0.456 h
[12]
  total protein half-life in vivo: 0.869 h

## MGMLEARELLCERDERTLFSGLSFTLNAGEWVQITGSNGAGKTTLLRLLTGLSRPDAGEVLWQGQPLHQVRDSYHQNLLWIGHQPGIKTRLTALENLHFYHRDGDTAQCLEALAQAGLAGFEDIPVNQLSAGQQRRVALARLWLTRATLWILDEPFTAIDVNGVDRLTQRMAQHTEQGGIVILTTHQPLNVAESKIRRISLTQTRAA
[1]
  total protein half-life in vivo: 6.22 h
[5]
  total protein half-life in vivo: 5.33 h
[9]
  total protein half-life in vivo: 5.94 ± 0.86 h
